Experimental data published in article doi:10.1101/2023.11.15.567215 (bioRxiv, 2023).

Target: the molecule itself
Assay: cross-linking

B1: Mtb LexA (LexA of Mycobacterium tuberculosis), wild type (natural protein)
chain: MNDSNDTSVAGGAAGADSRVLSADSALTERQRTILDVIRASVTSRGYPPSIREIGDAVGLTSTSSVAHQLRTLERKGYLRRDPNRPRAVNVRGADDAALPPVTEVAGSDALPEPTFVPVLGRIAAGGPILAEEAVEDVFPLPRELVGEGTLFLLKVIGDSMVEAAICDGDWVVVRQQNVADNGDIVAAMIDGEATVKTFKRAGGQVWLMPHNPAFDPIPGNDATVLGKVVTVIRKV
  stoichiometry N: 2
